# Assay: yeast display, Sf9 membrane polyspecificity reagent, FACS + sequencing; frameworks hold sequencing errors
# How it was run: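 Polyreactivity labels are assigned by the sorting gate from which each nanobody was recovered. The gates were low and high (top ~1%), set on anti-HA fluorescence for expression and streptavidin fluorescence for reagent binding. Before sorting, galactose-induced (36–48 hours) yeast display cells were stained for 1 hour at 4 °C with 10% biotinylated, detergent-solubilized Sf9 membrane reagent.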
row,Sequence,polyreactivity (PSR sort gate)
1,QVQLVESGGGLVQAGGSLRLSCAASGSIFTGYAMGWYRQAPGKDRELVAGISWGGTSTYYADSVKGRFTISRDTAKNTVYLQMNSLKPEDTAVYYCSAVRGKYGYLTTPYWFDYWGQGTQVTVSS,high polyreactivity
2,QVQLVESGGGLVQAGGILRLSCAASGIIFGPNAMGWYRQAPGKERELVAAITSGGRTYYADSVKGRFTISRDNAKNTVYLHMNSLKPEDTAVYYCAARVWSWRSKYDYWGQGTQVTVSS,high polyreactivity
3,QDQHVESGGGLVQAGGSLRLSCAASGFIFSQYAMGWYRQAPGKERELVAAISSGSTYADSVKGRFTISRDNAKNTVYLQMNSLKPEDTAVYYCAVDYHQAWPSADYWFEYDYWGQGTQVTVSS,low polyreactivity
4,QVQLVESGGGLVQAGGTLRLSCAASGIIFDTYVMGWYRQAPGKERELVAAITRSGGRTRYADTVKGRFTISRYNAKNTVYLQMNSLKPEDTAVYYCAARIPDRQDGYGYWGQGTQVTVSS,high polyreactivity
5,QVQLLESGGGLVQAGGSLRLSSASSSFIFYSNDMGSYRQAPGKERELVAAISRRCGSTYYADSVKGRFTISRDNAKNTVFLQMNSLKPEDTAVYYCAARVGSGFDSWGQGTQVTVSS,high polyreactivity
6,QVQLVESGGGLVQAGGRLRLTCAASGLTFYSYAMRCYRQAPAKERELVAAISWTGGSTYYADSEKGRFTISRDNAKNTVYLQMNSLKPEDTAVYYCAAVDYWVSGDYYWGQGTQVTVSS,high polyreactivity
7,QVQLVESGGGLVQAGGSLRLSCAASGSSFRRYAMGWSRQAPGKERELVASITASGGSTYYADSVKGRFTISRDNAKNTVYLQMNSLKAEDTAVYYCNKDTIKSYYRRYDSWGQGTQVTVSS,low polyreactivity
8,QVQLVESGGGLVQAGGTLRLSCAASGIIFDQNAMGWYRQAPGKERELVAAISWSGGGTYYADSVKGRFTISRDNAKNTVYLQMNSLKPEDTAVSYCAVEDMSHAYVQHYRFGYGYWGQGTQVTVSS,low polyreactivity
9,QVQLVESGGGLGQAGGSLRLSCAASGSIFAVNAMGWYRPAPGKERELVAGINSSGGSTHYADSVKGRFTISRDNAKNTVYFQMNSLKPEDTAVYYCAADWLRPAYYAVASLVKSDYWGQGTQVTVSS,low polyreactivity
10,QVQLVESGGGLVQAGGSLRLSCAASGFNLKWYAMGWYRQAPGKERELVAAINDRGGNTYYADSVKGRFTISRDNAKNTVYLQMNSLKPEDTAVYYCAVRGKTYRPYYYWGQGTQVTVSS,high polyreactivity
11,QVQLVESGGGLVQAGGSLRLSCAASGSTFRYYAMGWYRQAPGKERELVAAITQSGGITYYADSVKGRFTISRDNAKNTVYLQMNSLKPEDTAVYYCAKRYYVDYDYWGQGTQVTVSS,low polyreactivity
12,QVQLVESGGGLVHAGGSLRLSCAASGSILKYYAMGWYRQAPGKERELVAAITSRGGSTYYADSVKGRFTISRDNAKNTVYLQMNSLKPEDTAVYYCNRVYLGYFRYDYWGQGTQVTVSS,high polyreactivity
13,QVQLVESGGGLVQAGGSLRLSCAASGIIFTWYAMGWYRQAPGKERELVAAITSGNTYYADSVKGRFTISRDNAKNTVYLQMNSLKPEDTAVYYCNAVYSYTDEYDYWGQGTQVTVSS,high polyreactivity
14,QVQLVESGGGLVQAGGSLRLSCAASGRIFSPNAMGWYRQAPGKERELVAAITRGGSTNYADSVKGRFTISRDNAKNTVYLQMNSLKPEDTAVYYCAAQLAKTISGRGYNSWGQGTQVTVSS,low polyreactivity
15,QVQLVESGGGLVQAGGSLRLSCAASGFIFGPYAMGWYRQAPGKERELVAASWRGGSTYYADSVKGRFTISRDNAKNTVYLQMNSLKPEDTAVYYCAADVFYSLYYYWGQGTQVTVSS,low polyreactivity
16,QVQLVESGGGLVQAGGSLRLSCAASGSIFDTYAMGWYRQAPGKERELVAAITQSGDRTYYADSVKGRFTISRDNAKNTVYLQMNSLKPEDTAVYYCNTRRGSAWSSDYWGQGTQVTVSS,low polyreactivity
17,QVQLVESGGGLVQAGGSLRLSCAASGRTIWWYAMGWYRQAPGKERELVAAITWIGGSTYYADSVKGRFTISRDNAKNTVYLKMNSLKPEDTAVYFCNVVYYGRTWVPYEWEYDYWGQGTQVTVSS,low polyreactivity
18,QVQLVESGGGLLQAGGSLRLSCSASGFIFHYYARGLYRQAPGKDRELVAAIRSGGSTYYADSVKGRFTISRDNAKNTVYLQMNSLKPEHTEVYFCNGRFYSRGYRYYYWGQGTQVTVSS,high polyreactivity
19,QVQLVESVGGLVQAGGSLRLSCAASGITFYGYTMGWYIQAPGKERELVAAITSGGITYYADSVKGRFTISRDNAKNTVYLQMNSLKPEDTAVYYCAARRYCYTSITWYDYWGQGTQVTVSS,high polyreactivity
20,QVQLVESGGGLVQAGGSLRLSCAASGITFSGYVMGWYLQAPGKERELVAAISRSGGSTYYADSVKGRYTISRDNAKNTVYLQMNSLKPEDTAVYYCATASRTSRTGWAGYFWGQGTQVTVSS,high polyreactivity
21,QVQLVESGGGLVQAGGSLRLSCAASGSIFHLYAMGWYRQAPGKEREFVAAISSSGGRTYYADSVKGRFTISRDNAKNTVYLQMNSLKPEDTAVYYCATAEQYGTKLRQVSYQYDYWGHGTQVTVSS,low polyreactivity
22,QVQLVESGGGLVQGGGSLRLRCAASGRSFKWYAMVWYRQAPGKDRELVAGISRGAGRTYYADSEKGRFTISRDNAKNTVYLQMNSLKADDTAVYYCAAVPSYHSTSPFYYWGLGTQVTVSS,high polyreactivity
23,QVQLGESGGGLVQAGGSLRLSCAASGSTFGFYAMGWYRQAPGKERELVAAISGRGGSTYYADSVKGRFTISRDNAKNTVYLQMNSLKPEDTAVYYCAKEFKYWGYPYDYWGQGTQVTVSS,low polyreactivity
24,QVQLVESGGGLVQAGGSLRLSCAASGSIFDSNAMGWYRQAPGKERELVASIDRGGDTNYADSVKGRFTISRDNAKNTVYLQMNSLKPEDTAVYYCAAYYYKWVWIGMDYWGQGTQVTVSS,low polyreactivity
25,QVQLVESGGGLVQAGGSLRLSCAASGFTLFTNAMGWYRQAPWKERELLARISRGGSTKYADSVKGRFTISRDNAKNTVYLQMNSLKREDTAVYSCATGYYGYRYGYWGQGTQVTVSS,high polyreactivity
26,QVQLVESGGGLVQAGGSLRLSCAASGSTFVWNAMGWYRQAPGQERELVAAITWSGGSTYYADSVKGRFTISRDNAKNTVYLQMNSLIPEDTAVYYGNAGPVVRRWDAVGYDYWGQGTQVTVSS,low polyreactivity
27,QVQLVESGGGLVQAGGRLRLSCAASGSIFAGYVMGWYRQAPGKERELVAAISKSGGSTYYADSVKGRFTISRDNAKNTVSLQMNSLKPEDTAVYYSAKDHYYVDYDYWGQGTQVTVSS,high polyreactivity
28,QVQLVESGGGLVQAGGSLRLSCAASGITFSKNAMGWYRKEPGKEKELVAAISRGGSTYYADSEKGRFTISRDNAKNTVYLQMNSLKPEDTAVYYCAARSRYYYRRPQISYDYWGQGTQVTVSS,low polyreactivity
29,QVQLVESGGGLVQAGGSLRLSCAASGISFYLYAMGWYRQAPGKERELVAAISWRGDSTYYADSVKGRFTISRDNAKNTVYLQMNSLKPEDTAVYYCAADLLPLYDYWGQGTQVTGSS,high polyreactivity
30,QVQLVESGGGLVQAGGSLRLTCAASGLTFPVYAKGWYRQAPGKEREFVAAISYSAGRTYYADSVKGRFTISRDNAKNTVYLQMNRLKPEDTAVYYCAAATYYSIYDYWGQGTQVTVSS,high polyreactivity

# — the nanobody polyreactivity screen of Harvey et al. (2022)
